The values that follow come from FireProtDB (doi:10.1002/pro.5560070509).

B1: NADP-dependent isopropanol dehydrogenase, P25984 (parent)
chain: MKGFAMLGINKLGWIEKERPVAGSYDAIVRPLAVSPCTSDIHTVFEGALGDRKNMILGHEAVGEVVEVGSEVKDFKPGDRVIVPCTTPDWRSLEVQAGFQQHSNGMLAGWKFSNFKDGVFGEYFHVNDADMNLAILPKDMPLENAVMITDMMTTGFHGAELADIQMGSSVVVIGIGAVGLMGIAGAKLRGAGRIIGVGSRPICVEAAKFYGATDILNYKNGHIVDQVMKLTNGKGVDRVIMAGGGSETLSQAVSMVKPGGIISNINYHGSGDALLIPRVEWGCGMAHKTIKGGLCPGGRLRAEMLRDMVVYNRVDLSKLVTHVYHGFDHIEEALLLMKDKPKDLIKAVVIL

Variants of B1 are the subject of this data set. The settings on record: Clostridium beijerinckii; pH 8.25; Thermal; DSC; Sodium phosphate 25 mM; NaCl 1 M; reversible: yes; structure 1KEV; whole UniProt chain shown.

On to S24P L316P, for which the Tm (commonly the temperature at which the thermal transition is half complete) was determined as 77.1 °C and the “change of melting temperature, mutant - wild type (higher = more stable)” value (“change of melting temperature, mutant” for short) came to 11.1 °C.
For the variant L316P, the Tm turned out to be 76.8 °C and the “change of melting temperature, mutant” value turned out to be 10.8 °C.
For T149P, in that order: 65 °C and -1 °C.
For the variant S24P, the Tm amounted to 69.9 °C and the “change of melting temperature, mutant” value amounted to 3.9 °C.
The corresponding values for A22P are 66.7 °C and 0.7 °C.
The corresponding values for H222P are 59.5 °C and -6.5 °C.
As to A347P, the Tm was 68.6 °C and the “change of melting temperature, mutant” value came to 2.6 °C.
The corresponding values for A177P are 66.5 °C and 0.5 °C.
For L275P, in that order: 63.7 °C and -2.3 °C.
